Data as given in patent US5807698.

Molecular target: human p33 CDK2 (human) (UniProt P24941)

human cyclin E, sequence (P24864 16-410 limits assumed): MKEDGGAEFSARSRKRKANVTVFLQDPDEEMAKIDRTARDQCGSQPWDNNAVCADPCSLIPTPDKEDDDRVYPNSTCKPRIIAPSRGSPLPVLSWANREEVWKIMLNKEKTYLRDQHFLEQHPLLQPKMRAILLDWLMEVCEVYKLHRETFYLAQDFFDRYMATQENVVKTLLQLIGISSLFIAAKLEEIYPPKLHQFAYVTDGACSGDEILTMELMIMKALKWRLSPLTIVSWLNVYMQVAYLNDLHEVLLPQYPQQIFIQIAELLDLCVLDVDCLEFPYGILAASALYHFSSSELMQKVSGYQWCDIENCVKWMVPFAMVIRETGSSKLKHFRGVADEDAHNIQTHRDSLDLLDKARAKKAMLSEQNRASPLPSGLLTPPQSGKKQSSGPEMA

CDK2 histone H1 kinase activity in G1 cell extract: 22 fold
Substance: human cyclin E
